Reference: patent US20250304640A1 (ORIKINE BIO SL, published 2025)

How the values were obtained:
Test in all cases: cell-based or functional assay
[1] = target: T1, IL-10 receptor (IL-10R: IL10RA and IL10RB) on HEK-Blue IL-10 reporter cells (UniProt Q13651 22-578; Q08334 20-325, limits assumed)
T1 sequence (looked up) 1: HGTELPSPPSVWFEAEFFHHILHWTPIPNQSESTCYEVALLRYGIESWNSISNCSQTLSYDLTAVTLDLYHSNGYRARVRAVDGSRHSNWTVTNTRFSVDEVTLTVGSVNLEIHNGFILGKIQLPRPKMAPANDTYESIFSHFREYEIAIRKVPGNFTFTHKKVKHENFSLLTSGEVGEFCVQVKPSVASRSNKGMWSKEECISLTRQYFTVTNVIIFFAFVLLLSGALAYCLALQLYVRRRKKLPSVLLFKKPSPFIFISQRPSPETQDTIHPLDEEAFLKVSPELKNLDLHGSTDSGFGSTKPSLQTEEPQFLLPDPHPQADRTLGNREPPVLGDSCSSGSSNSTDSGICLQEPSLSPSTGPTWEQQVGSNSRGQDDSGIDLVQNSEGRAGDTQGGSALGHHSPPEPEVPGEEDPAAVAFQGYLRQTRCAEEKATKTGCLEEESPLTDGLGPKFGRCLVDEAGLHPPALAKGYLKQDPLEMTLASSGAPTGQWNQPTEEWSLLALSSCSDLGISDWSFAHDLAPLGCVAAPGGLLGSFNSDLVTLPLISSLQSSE
T1 sequence (looked up) 2: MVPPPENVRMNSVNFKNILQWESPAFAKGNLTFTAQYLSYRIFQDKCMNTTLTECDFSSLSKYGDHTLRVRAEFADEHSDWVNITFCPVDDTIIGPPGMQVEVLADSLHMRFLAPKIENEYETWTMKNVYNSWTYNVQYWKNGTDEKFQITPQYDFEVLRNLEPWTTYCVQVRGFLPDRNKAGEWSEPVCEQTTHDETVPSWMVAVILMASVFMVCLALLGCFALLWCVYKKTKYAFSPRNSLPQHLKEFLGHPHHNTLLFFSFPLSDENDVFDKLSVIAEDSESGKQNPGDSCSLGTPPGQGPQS

[2] = target: T1, IL-10 receptor (IL-10R: IL10RA and …); remark: listed apart in the source
[3] = target: T1, IL-10 receptor (IL-10R: IL10RA and …); remark: listed apart in the source

B1: IL-10WT (wild-type human IL-10) (ligand)
chain: SPGQGTQSENSCTHFPGNLPNMLRDLRDAFSRVKTFFQMKDQLDNLLLKESLLEDFKGYLGCQALSEMIQFYLEEVMPQAENQDPDIKAHVNSLGENLKTLRLRLRRCHRFLPCENKSKAVEQVKNAFNKLQEKGIYKAMSEFDIFINYIEAYMTMKIRN
EC-50, HEK-Blue IL-10 reporter cells [1]: 8.91e-10

B2: Foldikine10 (ligand)
chain: MTQSENSCTHFPGNLPNMLRDLRDAFSRVKTFFQMKDQLDNLLLKESLLEDFKGYLGCQALSEMIQFYLEEVMPQAENQEPDIKAHVNSLGENLKTLRLRLRRCHRFLPCENKSKAVEQVKNAFNKLQEKGIYKAMSEFDIFINYIEAYMTMNNGGLDYLPNMLRDLRDAFSRVKTFFQMKDQLDNLLLKESLLEDFKGYLGCQALSEMIQFYLEEVMPQAENQDPDIKAHVNSLGENLKTLRLRLRRNHRFLPCENKSKAVEQVKNAFNKLQEKGIYKAMSEFDIFINYIEAYMTMKIRN
EC-50, HEK-Blue IL-10 reporter cells [1]: 6.01e-10

B3: ORK10-002 (ligand)
chain: MTQSENSCTHFPGNLPNMLRDLRDAFSRVKTFFQMKDQLDNLLLKESLLEDFKGYLGCQALSEMIQFYLEEVMPQAENQDPDIKAHVNSLGENLKTLRLRLRRCHRFLPCENKSKAVEQVKNAFNKLQEKGIYKAMSEFDIFINYIEAYMTMNFGGLDYLPNMLRDLRDAFSRVKTFFQMKDQLDNLLLKESLLEDFKGYLGCQALSEMIQFYLEEVMPQAENQDPDIKAHVNSLGENLKTLRLRLRRCHRFLPCENKSKAVEQVKNAFNKLQEKGIYKAMSEFDIFINYIEAYMTM
EC-50, HEK-Blue IL-10 reporter cells [1]: 3.87e-10

B4: ORK10-003 (ligand)
chain: MTQSENSCTHFPGNLPNMLRDLRDAFSRVKTFFQMKDQLDNLLLKESLLEDFKGYLGCQALSEMIQFYLEEVMPQAENQDPDIKAHVNSLGENLKTLRLRLRRCHRFLPCENKSKAVEQVKNAFNKLQEKGIYKAMSEFDIFINYIEAYLYKTITPEFANMLRDLRDAFSRVKTFFQMKDQLDNLLLKESLLEDFKGYLGCQALSEMIQFYLEEVMPQAENQDPDIKAHVNSLGENLKTLRLRLRRCHRFLPCENKSKAVEQVKNAFNKLQEKGIYKAMSEFDIFINYIEAYMTM
EC-50, HEK-Blue IL-10 reporter cells [1]: 2.3e-10

B5: ORK10-005 (ligand)
chain: MTQSENSCTHFPGNLPNMLRDLRDAFSRVKTFFQMKDQLDNLLLKESLLEDFKGYLGCQALSEMIQFYLEEVMPQAENQDPDIKAHVNSLGENLKTLRLRLRRCHRFLPCENKSKAVEQVKNAFNKLQEKGIYKAMSEFDIFINYIEAKDKDIRDGDELANMLRDLRDAFSRVKTFFQMKDQLDNLLLKESLLEDFKGYLGCQALSEMIQFYLEEVMPQAENQDPDIKAHVNSLGENLKTLRLRLRRCHRFLPCENKSKAVEQVKNAFNKLQEKGIYKAMSEFDIFINYIEAYMTM
EC-50, HEK-Blue IL-10 reporter cells [1]: 6.25e-10

B6: IL10-HiBit (ligand)
chain: SPGQGTQSENSCTHFPGNLPNMLRDLRDAFSRVKTFFQMKDQLDNLLLKESLLEDFKGYLGCQALSEMIQFYLEEVMPQAENQDPDIKAHVNSLGENLKTLRLRLRRCHRFLPCENKSKAVEQVKNAFNKLQEKGIYKAMSEFDIFINYIEAYMTMKIRNGGVSGWRLFKKIS
IL-10 EC-50, HEK-Blue IL-10 reporter cells [2]: 8e-10

B7: CSF1-25AA-IL10-HiBit (ligand)
chain: EEVSEYCSHMIGSGHLQSLQRLIDSQMETSCQITFEFVDQEQLKDPVCYLKKAFLLVQDIMEDTMRFRDNTPNAIAIVQLQELSLRLKSCFTKDYEEHDKACVRTFYETPLQLLEKVKNVFNETKNLLDKDWNIFSKNCNNSFAECSSQDGGGSGGSGGSGGSGGSGGSGGSGGGRASPGQGTQSENSCTHFPGNLPNMLRDLRDAFSRVKTFFQMKDQLDNLLLKESLLEDFKGYLGCQALSEMIQFYLEEVMPQAENQDPDIKAHVNSLGENLKTLRLRLRRCHRFLPCENKSKAVEQVKNAFNKLQEKGIYKAMSEFDIFINYIEAYMTMKIRNGGVSGWRLFKKIS
EC-50 for IL10 activity, HEK-Blue IL-10 reporter cells [3]: 4.1e-10
